Measured values reported in patent US20130158238A1 (THERACLONE SCIENCES, published 2013).
Where two headings read alike, the source gives them in different places.

T1: A.Hong Kong.1180.99 H3N2
T1 M2: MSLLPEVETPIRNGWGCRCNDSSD

T2: A.Hong Kong.1144.99.H3N2
T2 M2: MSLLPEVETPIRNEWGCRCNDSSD

T3: A.Caracas.1.71.H3N2
T3 M2: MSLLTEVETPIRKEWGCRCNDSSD

T4: A.Hong Kong.1.68.H3N2
T4 M2: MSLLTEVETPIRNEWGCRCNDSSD

T5: A.X-31 Vaccine strain H3N2
T5 M2: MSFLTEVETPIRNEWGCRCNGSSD

B1: 23K12 (antibody, V domains shown)
VH: EVQLVESGGGLVQPGGSLRISCAASGFTVSSNYMSWVRQAPGKGLEWVSVIYSGGSTYYADSVKGRFSFSRDNSKNTVFLQMNSLRAEDTAVYYCARCLSRMRGYGLDVWGQGTTVTVS
VL: DIQMTQSPSSLSASVGDRVTITCRTSQSISSYLNWYQQKPGKAPKLLIYAASSLQSGVPSRFSGSGSGTDFTLTISGLQPEDFATYYCQQSYSMPAFGQGTKLEIK
B2: 8i10 (antibody, V domains shown)
VH: QVQLQESGPGLVKPSETLSLTCTVSGSSISNYYWSWIRQSPGKGLEWIGFIYYGGNTKYNPSLKSRVTISQDTSKSQVSLTMSSVTAAESAVYFCARASCSGGYCILDYWGQGTLVTVS
VL: DIQMTQSPSSLSASVGDRVTITCRASQNIYKYLNWYQQRPGKAPKGLISAASGLQSGVPSRFSGSGSGTDFTLTITSLQPEDFATYYCQQSYSPPLTFGGGTRVEIK

Tests used:
[1] = biological target: M2e peptide … (23mer synthetic peptide of M2 derived from A/Fort Worth/1/50) (Influenza A virus A/Fort Worth/1/50 (H1N1)); assay: ELISA, peptide 2 µg/mL, mAb 5 µg/mL
M2e = assay: ELISA, peptide 2 µg/mL, mAb 5 µg/mL
[2] = biological target: M2 protein of A/Puerto Rico/8/34 (H1N1), on cells (Influenza A virus A/Puerto Rico/8/34 (H1N1)) (UniProt P06821); assay: flow cytometry on MDCK cells infected with A/Puerto Rico/8/34
[3] = biological target: M2e peptide … (23mer synthetic peptide of M2 derived from A/Fort Worth/1/50) (Influenza A virus A/Fort Worth/1/50 (H1N1)); assay: ELISA, peptide coated at 1 µg/ml
[4] = biological target: M2e peptide … (23mer synthetic peptide of M2 derived from A/Fort Worth/1/50) (Influenza A virus A/Fort Worth/1/50 (H1N1)); assay: ELISA, peptide 2 µg/mL, mAb 5 µg/mL; remark: listed apart in the source
M16 = assay: ELISA, peptide 2 µg/mL, mAb 5 µg/mL
M15 = assay: ELISA, peptide 2 µg/mL, mAb 5 µg/mL
NM17 = assay: ELISA, peptide 2 µg/mL, mAb 5 µg/mL
NM15 = assay: ELISA, peptide 2 µg/mL, mAb 5 µg/mL
A.Hong Kong.1180.99 H3N2 = biological target: T1, A.Hong Kong.1180.99 H3N2; assay: FACS, transfected HEK293 [D00006 FIG. 3C-1]
A.Hong Kong.1144.99.H3N2 = biological target: T2, A.Hong Kong.1144.99.H3N2; assay: FACS, transfected HEK293 [D00006 FIG. 3C-1]
A.Caracas.1.71.H3N2 = biological target: T3, A.Caracas.1.71.H3N2; assay: FACS, transfected HEK293, mAb 1 µg/ml [D00006 FIG. 3C-1]
A.Hong Kong.1.68.H3N2 = biological target: T4, A.Hong Kong.1.68.H3N2; assay: as above
[5] = biological target: T5, A.X-31 Vaccine strain H3N2; assay: as above

| Molecule | binding activity (ELISA A450) [1] | binding activity (ELISA A450) (M2e) | EC50 (read off the curve) [2] [µg/mL] | EC50 [3] [µg/mL] | binding activity (ELISA A450) [4] | binding activity (ELISA A450) (M16) | binding activity (ELISA A450) (M15) | binding activity (ELISA A450) (NM17) | binding activity (ELISA A450) (NM15) | binding result (A.Hong Kong.1180.99 H3N2) | binding result (A.Hong Kong.1144.99.H3N2) | binding result (A.Caracas.1.71.H3N2) | binding result (A.Hong Kong.1.68.H3N2) | binding result [5] |
| --- | --- | --- | --- | --- | --- | --- | --- | --- | --- | --- | --- | --- | --- | --- |
| 14C2 (chimeric mouse V-region/human IgG1 kappa 14C2 antibody) | 3.85 | 3.98 | 0.3 | 0.01 | – | – | – | – | – | – | – | – | – | – |
| B1 | – | – | – | – | 0.22 | 0.21 | 0.21 | 0.58 | 0.3 | no binding (tested: 1 µg/ml) | no binding (tested: 1 µg/ml) | binds | binds | binds |
| B2 | – | – | – | – | – | – | – | – | – | – | – | binds | – | binds |
